Article PMC5560549

Legend:
[1] = biological target: human FcRn (Sino Biological), biotinylated (UniProt P55899); assay: SPR (Biacore 3000); details: pH 6.0, not stated for this buffer (the HBS-EP+ used in the PCSK9 experiments contained 150 mM NaCl), HBS-EP buffer pH 6.0. Its composition is not given. The HBS-EP+ of the PCSK9 SPR section was 10 mM HEPES, 3
[2] = biological target: human FcRn (Sino Biological), biotinylated (UniProt P55899); assay: ELISA; details: 37°C (incubations), PBS (concentration not stated), PBST (PBS + 0.05% (v/v) Tween 20) adjusted to pH 6.0 or pH 7.4 for the washes. The pH of the antibody dilution buffer is
[3] = biological target: human FcRn (neonatal Fc receptor), biotinylated (human) (UniProt P55899); assay: SPR; Biacore 3000; biotinylated FcRn captured on streptavidin coupled to a CM5 chip; antibody 0-10 nM in HBS-EP pH 6.0 injected at 50 ul/min, 3 min association, 3 min dissociation; regeneration with HBS-EP pH 8.0; 1:1 Langmuir model

Substance	ka [1] [M⁻¹ s⁻¹]	kd [1] [s⁻¹]	EC50 ([2]; pH 6.0) [µg/mL]	EC50 ([2]; pH 7.4) [µg/mL]	Kd [3] [nM]	koff [3] [s⁻¹]	kon [3] [M⁻¹ s⁻¹]
F0016A, a human IgG1 anti-PCSK9 mAb (alirocumab) (antibody)	–	–	–	–	4.88	0.00617	1.27e+06
F0016B (alirocumab Fc T251Q/M429L) T251Q;M429L	1.43e+06	0.00302	3.47	12.2	–	–	–
F0016C (alirocumab Fc M429L/N435S) M429L;N435S	1.36e+06	0.0024	1.56	16.5	–	–	–
F0016D (alirocumab Fc M253Y/S255T/T257E) M253Y;S255T;T257E	1.05e+06	0.00201	1.75	8.87	–	–	–
F0016D, Fc variant M253Y/S255T/T257E of F0016A (antibody)	–	–	–	–	1.91	0.00201	1.05e+06

More lines, now with the values ahead:

ka [1] [M⁻¹ s⁻¹]	kd [1] [s⁻¹]	EC50 ([2]; pH 6.0) [µg/mL]	EC50 ([2]; pH 7.4) [µg/mL]	Kd [3] [nM]	koff [3] [s⁻¹]	kon [3] [M⁻¹ s⁻¹]	Substance
1.27e+06	0.00617	30.4	45.1	–	–	–	F0016A (alirocumab sequence, wild-type Fc)
–	–	–	–	2.11	0.00302	1.43e+06	F0016B, Fc variant T251Q/M429L of F0016A (antibody)
–	–	–	–	1.76	0.0024	1.36e+06	F0016C, Fc variant M429L/N435S of F0016A (antibody)
